Results from patent publication US20250388669A1 (published 2025).

T1: B7H3 (human, UniProt Q5ZPR3 29-466, limits assumed)
T1 sequence (looked up): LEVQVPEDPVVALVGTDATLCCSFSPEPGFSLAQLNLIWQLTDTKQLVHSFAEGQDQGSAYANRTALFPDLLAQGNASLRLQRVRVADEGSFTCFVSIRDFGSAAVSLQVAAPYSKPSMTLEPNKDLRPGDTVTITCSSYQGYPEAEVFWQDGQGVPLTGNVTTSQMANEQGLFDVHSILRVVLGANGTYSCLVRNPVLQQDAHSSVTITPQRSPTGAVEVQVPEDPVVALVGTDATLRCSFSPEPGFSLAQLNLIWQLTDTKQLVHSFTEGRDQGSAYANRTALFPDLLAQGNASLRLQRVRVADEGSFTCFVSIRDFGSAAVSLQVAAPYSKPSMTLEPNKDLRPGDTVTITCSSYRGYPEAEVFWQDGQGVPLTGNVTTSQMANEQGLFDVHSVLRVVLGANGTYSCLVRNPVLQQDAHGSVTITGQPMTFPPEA

B1: Ly1612 (antibody, V domains shown)
VH: QVQLVQSGAEVKKPGASVKVSCKASGYTFTSYVMHWVRQKPGQGLEWIGYINPYNEGTESTDKFKGRATMTSDKSTSTVYMELSSLRSEDTAVYYCASIYYGYEGTYFGVWGQGTLVTVSS
VL: EIVLTQSPATLSLSPGERATLSCRASSSVSYMHWYQQKPGQAPRPWIYATSNLASGIPARFSGSRSGTDYTLTISSLEPEDFAVYYCQQWSSNTLTFGGGTKVEIK
notes: Parent mAb; also called Anti-B7H3 Ly1612; B7H3 mAb
B2: Ly2364 (other)
chain 1: QVQLVQSGAEVKKPGASVKVSCKASGYTFTSYVMHWVRQKPGQGLEWIGYINPYNEGTESTDKFKGRATMTSDKSTSTVYMELSSLRSEDTAVYYCASIYYGYEGTYFGVWGQGTLVTVSSASTKGPSVFPLAPSSKSTSGGTAALGCLVKDYFPEPVTVSWNSGALTSGVHTFPAVLQSSGLYSLSSVVTVPSSSLGTQTYICNVNHKPSNTKVDKKVEPKSCGGGGSGGGGSGGGGSGGGGSGGGGSEVQLVESGGGLVQPGGSLRLSCAASGFTFSTYAMNWVRQAPGKGLEWVGRIRSKYNNYATYYADSVKGRFTISRDDSKNSLYLQMNSLKTEDTAVYYCVRHGNFGNSYVSWFAYWGQGTLVTVSSGGGGSDKTHTCPPCPAPEAAGPSVFLFPPKPKDTLMISRTPEVTCVVVDVSHEDPEVKFNWYVDGVEVHNAKTKPREEQYNSTYRVVSVLTVLHQDWLNGKEYKCKVSNKALPAPIEKTISKAKGQPREPQVYTLPPSREEMTKNQVSLWCLVKGFYPSDIAVEWESNGQPENNYKTTPPVLDSDGSFFLYSKLTVDKSRWQQGNVFSCSVMHEALHNHYTQKSLSLSPGGGGGSGGGGSGGGGSGGGGSQVQLVQSGAEVKKPGASVKVSCKASGYTFAGFEMHWVRQAPGQGLEWMGAIDPKTGGTDYNQKFKDRVTMTRDTSISTAYMELSRLRSDDTAVYYCARDLGYFDVWGQGTLVTVSS
chain 2: QVQLVQSGAEVKKPGASVKVSCKASGYTFTSYVMHWVRQKPGQGLEWIGYINPYNEGTESTDKFKGRATMTSDKSTSTVYMELSSLRSEDTAVYYCASIYYGYEGTYFGVWGQGTLVTVSSASTKGPSVFPLAPSSKSTSGGTAALGCLVKDYFPEPVTVSWNSGALTSGVHTFPAVLQSSGLYSLSSVVTVPSSSLGTQTYICNVNHKPSNTKVDKKVEPKSCGGGGSGGGGSGGGGSGGGGSGGGGSQAVVTQEPSLTVSPGGTVTLTCRSSTGAVTTSNYANWVQQKPGQAPRGLIGGTNKRAPWTPARFSGSLLGGKAALTITGAQAEDEADYYCALWYSNLWVFGGGTKLTVLGGGGSDKTHTCPPCPAPEAAGPSVFLFPPKPKDTLMISRTPEVTCVVVDVSHEDPEVKFNWYVDGVEVHNAKTKPREEQYNSTYRVVSVLTVLHQDWLNGKEYKCKVSNKALPAPIEKTISKAKGQPREPQVYTLPPSREEMTKNQVSLSCAVKGFYPSDIAVEWESNGQPENNYKTTPPVLDSDGSFFLVSKLTVDKSRWQQGNVFSCSVMHEALHNRFTQKSLSLSPGGGGGSGGGGSGGGGSGGGGSDIQMTQSPSSLSASVGDRVTITCRASQDIRSNLNWYQQKPGGAVKLLIYYTSRLHSGVPSRFSGSGSGTDYTLTISSLQPEDFATYFCQQSEKLPRTFGGGTKVEIR
light: EIVLTQSPATLSLSPGERATLSCRASSSVSYMHWYQQKPGQAPRPWIYATSNLASGIPARFSGSRSGTDYTLTISSLEPEDFAVYYCQQWSSNTLTFGGGTKVEIKRTVAAPSVFIFPPSDEQLKSGTASVVCLLNNFYPREAKVQWKVDNALQSGNSQESVTEQDSKDSTYSLSSTLTLSKADYEKHKVYACEVTHQGLSSPVTKSFNRGEC
notes: Tri-specific antibody: B7H3 Fabs, central CD3 Fv, terminal CD137 Fv; Flexible linker is (G4S)5
B3: Ly2365 (other)
chain 1: QVQLVQSGAEVKKPGASVKVSCKASGYTFTSYVMHWVRQKPGQGLEWIGYINPYNEGTESTDKFKGRATMTSDKSTSTVYMELSSLRSEDTAVYYCASIYYGYEGTYFGVWGQGTLVTVSSASTKGPSVFPLAPSSKSTSGGTAALGCLVKDYFPEPVTVSWNSGALTSGVHTFPAVLQSSGLYSLSSVVTVPSSSLGTQTYICNVNHKPSNTKVDKKVEPKSCGGGGSGGGGSGGGGSEVQLVESGGGLVQPGGSLRLSCAASGFTFSTYAMNWVRQAPGKGLEWVGRIRSKYNNYATYYADSVKGRFTISRDDSKNSLYLQMNSLKTEDTAVYYCVRHGNFGNSYVSWFAYWGQGTLVTVSSGGGGSDKTHTCPPCPAPEAAGPSVFLFPPKPKDTLMISRTPEVTCVVVDVSHEDPEVKFNWYVDGVEVHNAKTKPREEQYNSTYRVVSVLTVLHQDWLNGKEYKCKVSNKALPAPIEKTISKAKGQPREPQVYTLPPSREEMTKNQVSLWCLVKGFYPSDIAVEWESNGQPENNYKTTPPVLDSDGSFFLYSKLTVDKSRWQQGNVFSCSVMHEALHNHYTQKSLSLSPGGGGGSGGGGSGGGGSGGGGSQVQLVQSGAEVKKPGASVKVSCKASGYTFAGFEMHWVRQAPGQGLEWMGAIDPKTGGTDYNQKFKDRVTMTRDTSISTAYMELSRLRSDDTAVYYCARDLGYFDVWGQGTLVTVSS
chain 2: QVQLVQSGAEVKKPGASVKVSCKASGYTFTSYVMHWVRQKPGQGLEWIGYINPYNEGTESTDKFKGRATMTSDKSTSTVYMELSSLRSEDTAVYYCASIYYGYEGTYFGVWGQGTLVTVSSASTKGPSVFPLAPSSKSTSGGTAALGCLVKDYFPEPVTVSWNSGALTSGVHTFPAVLQSSGLYSLSSVVTVPSSSLGTQTYICNVNHKPSNTKVDKKVEPKSCGGGGSGGGGSGGGGSQAVVTQEPSLTVSPGGTVTLTCRSSTGAVTTSNYANWVQQKPGQAPRGLIGGTNKRAPWTPARFSGSLLGGKAALTITGAQAEDEADYYCALWYSNLWVFGGGTKLTVLGGGGSDKTHTCPPCPAPEAAGPSVFLFPPKPKDTLMISRTPEVTCVVVDVSHEDPEVKFNWYVDGVEVHNAKTKPREEQYNSTYRVVSVLTVLHQDWLNGKEYKCKVSNKALPAPIEKTISKAKGQPREPQVYTLPPSREEMTKNQVSLSCAVKGFYPSDIAVEWESNGQPENNYKTTPPVLDSDGSFFLVSKLTVDKSRWQQGNVFSCSVMHEALHNRFTQKSLSLSPGGGGGSGGGGSGGGGSGGGGSDIQMTQSPSSLSASVGDRVTITCRASQDIRSNLNWYQQKPGGAVKLLIYYTSRLHSGVPSRFSGSGSGTDYTLTISSLQPEDFATYFCQQSEKLPRTFGGGTKVEIR
light: EIVLTQSPATLSLSPGERATLSCRASSSVSYMHWYQQKPGQAPRPWIYATSNLASGIPARFSGSRSGTDYTLTISSLEPEDFAVYYCQQWSSNTLTFGGGTKVEIKRTVAAPSVFIFPPSDEQLKSGTASVVCLLNNFYPREAKVQWKVDNALQSGNSQESVTEQDSKDSTYSLSSTLTLSKADYEKHKVYACEVTHQGLSSPVTKSFNRGEC
notes: Tri-specific antibody: B7H3 Fabs, central CD3 Fv, terminal CD137 Fv; Flexible linker is (G4S)3
B4: Ly2366 (other)
chain 1: QVQLVQSGAEVKKPGASVKVSCKASGYTFTSYVMHWVRQKPGQGLEWIGYINPYNEGTESTDKFKGRATMTSDKSTSTVYMELSSLRSEDTAVYYCASIYYGYEGTYFGVWGQGTLVTVSSASTKGPSVFPLAPSSKSTSGGTAALGCLVKDYFPEPVTVSWNSGALTSGVHTFPAVLQSSGLYSLSSVVTVPSSSLGTQTYICNVNHKPSNTKVDKKVEPKSCGGGGSGGGGSEVQLVESGGGLVQPGGSLRLSCAASGFTFSTYAMNWVRQAPGKGLEWVGRIRSKYNNYATYYADSVKGRFTISRDDSKNSLYLQMNSLKTEDTAVYYCVRHGNFGNSYVSWFAYWGQGTLVTVSSGGGGSDKTHTCPPCPAPEAAGPSVFLFPPKPKDTLMISRTPEVTCVVVDVSHEDPEVKFNWYVDGVEVHNAKTKPREEQYNSTYRVVSVLTVLHQDWLNGKEYKCKVSNKALPAPIEKTISKAKGQPREPQVYTLPPSREEMTKNQVSLWCLVKGFYPSDIAVEWESNGQPENNYKTTPPVLDSDGSFFLYSKLTVDKSRWQQGNVFSCSVMHEALHNHYTQKSLSLSPGGGGGSGGGGSGGGGSGGGGSQVQLVQSGAEVKKPGASVKVSCKASGYTFAGFEMHWVRQAPGQGLEWMGAIDPKTGGTDYNQKFKDRVTMTRDTSISTAYMELSRLRSDDTAVYYCARDLGYFDVWGQGTLVTVSS
chain 2: QVQLVQSGAEVKKPGASVKVSCKASGYTFTSYVMHWVRQKPGQGLEWIGYINPYNEGTESTDKFKGRATMTSDKSTSTVYMELSSLRSEDTAVYYCASIYYGYEGTYFGVWGQGTLVTVSSASTKGPSVFPLAPSSKSTSGGTAALGCLVKDYFPEPVTVSWNSGALTSGVHTFPAVLQSSGLYSLSSVVTVPSSSLGTQTYICNVNHKPSNTKVDKKVEPKSCGGGGSGGGGSQAVVTQEPSLTVSPGGTVTLTCRSSTGAVTTSNYANWVQQKPGQAPRGLIGGTNKRAPWTPARFSGSLLGGKAALTITGAQAEDEADYYCALWYSNLWVFGGGTKLTVLGGGGSDKTHTCPPCPAPEAAGPSVFLFPPKPKDTLMISRTPEVTCVVVDVSHEDPEVKFNWYVDGVEVHNAKTKPREEQYNSTYRVVSVLTVLHQDWLNGKEYKCKVSNKALPAPIEKTISKAKGQPREPQVYTLPPSREEMTKNQVSLSCAVKGFYPSDIAVEWESNGQPENNYKTTPPVLDSDGSFFLVSKLTVDKSRWQQGNVFSCSVMHEALHNRFTQKSLSLSPGGGGGSGGGGSGGGGSGGGGSDIQMTQSPSSLSASVGDRVTITCRASQDIRSNLNWYQQKPGGAVKLLIYYTSRLHSGVPSRFSGSGSGTDYTLTISSLQPEDFATYFCQQSEKLPRTFGGGTKVEIR
light: EIVLTQSPATLSLSPGERATLSCRASSSVSYMHWYQQKPGQAPRPWIYATSNLASGIPARFSGSRSGTDYTLTISSLEPEDFAVYYCQQWSSNTLTFGGGTKVEIKRTVAAPSVFIFPPSDEQLKSGTASVVCLLNNFYPREAKVQWKVDNALQSGNSQESVTEQDSKDSTYSLSSTLTLSKADYEKHKVYACEVTHQGLSSPVTKSFNRGEC
notes: Tri-specific antibody: B7H3 Fabs, central CD3 Fv, terminal CD137 Fv; Flexible linker is (G4S)2

Biological target: T1, B7H3
Test: ELISA or FCM (Example 2)

Binder | binding result
B1 | binds
B2 | binds
B3 | binds
B4 | binds
